Test results from the supplement of paper PMC12855868.

B1: library; numbered along this chain (parent)
chain: MAAAGGARLLRAASAVLGGPAGRWLHHAGSRAGSSGLLRNRGPGGSAEASRSLSVSARARSSSEDKITVHFINRDGETLTTKGKVGDSLLDVVVENNLDIDGFGACEGTLACSTCHLIFEDHIYEKLDAITDEENDMLDLAYGLTDRSRLGCQICLTKSMDNMTVRVPETVADARQSIDVGKTS

Variants of: B1
Assay: scaled log2 fold change in cell abundance, elesclomol vs control (0 = silent mean, 1 = nonsense mean) (scaled log2 ratio); higher = higher viability under elesclomol (loss of FDX1 cuproptosis function)
Details: glucose 10 mM
Protocol: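 Deep mutational scan of full-length human FDX1: a pooled saturation-mutagenesis ORF library (every residue 2-184 mutated to all 19 amino acids plus stop, and silent codons where available) was expressed by lentivirus in FDX1-knockout ABC1 (14 days) or HEK293T (11 days) cells grown with elesclomol (ES) or DMSO control. Variant abundance came from ORF sequencing. The log2 fold change (ES vs control, mean of duplicates) was centred on the silent-variant mean (0) and scaled to the nonsense-variant mean (1). Higher values mean greater viability under ES, i.e. loss of FDX1 function in cuproptosis.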

[1] = with ABC1 FDX1 KO, elesclomol 5 nM, 14 days
[2] = with HEK293T FDX1 KO, elesclomol 40 nM, 11 days
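Note: variant abundance is its share of total variant reads in each endpoint sample, from next-generation sequencing of the integrated ORF PCR-amplified out of genomic DNA.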

MAAAGGARLLRAASAVLGGPAGRWLHHAGSRAGSSGLLRNRGPGGSAEASRSLSVSARARSSSEDKITVHFINRDGETLTTKGKVGDSLLDCVVENNLDIDGFGACEGTLACSTCHLIFEDHIYEKLDAITDEENDMLDLAYGLTDRSRLGCQICLTKSMDNMTVRVPETVADARQSIDVGKTS [V92C]
scaled log2 fold change [1]: 0.195
scaled log2 fold change [2]: -0.64

MAAAGGARLLRAASAVLGGPAGRWLHHAGSRAGSSGLLRNRGPGGSAEASRSLSVSARARSSSEDKITVHFINRDGETLTTKGKVGDSLLDEVVENNLDIDGFGACEGTLACSTCHLIFEDHIYEKLDAITDEENDMLDLAYGLTDRSRLGCQICLTKSMDNMTVRVPETVADARQSIDVGKTS [V92E]
scaled log2 fold change [1]: 0.961
scaled log2 fold change [2]: 0.463

MAAAGGARLLRAASAVLGGPAGRWLHHAGSRAGSSGLLRNRGPGGSAEASRSLSVSARARSSSEDKITVHFINRDGETLTTKGKVGDSLLDDVVENNLDIDGFGACEGTLACSTCHLIFEDHIYEKLDAITDEENDMLDLAYGLTDRSRLGCQICLTKSMDNMTVRVPETVADARQSIDVGKTS [V92D]
scaled log2 fold change [1]: 1.07
scaled log2 fold change [2]: 1.13

MAAAGGARLLRAASAVLGGPAGRWLHHAGSRAGSSGLLRNRGPGGSAEASRSLSVSARARSSSEDKITVHFINRDGETLTTKGKVGDSLLDAVVENNLDIDGFGACEGTLACSTCHLIFEDHIYEKLDAITDEENDMLDLAYGLTDRSRLGCQICLTKSMDNMTVRVPETVADARQSIDVGKTS [V92A]
scaled log2 fold change [1]: 0.494
scaled log2 fold change [2]: -0.354

MAAAGGARLLRAASAVLGGPAGRWLHHAGSRAGSSGLLRNRGPGGSAEASRSLSVSARARSSSEDKITVHFINRDGETLTTKGKVGDSLLDFVVENNLDIDGFGACEGTLACSTCHLIFEDHIYEKLDAITDEENDMLDLAYGLTDRSRLGCQICLTKSMDNMTVRVPETVADARQSIDVGKTS [V92F]
scaled log2 fold change [1]: 0.0178
scaled log2 fold change [2]: 0.0606

MAAAGGARLLRAASAVLGGPAGRWLHHAGSRAGSSGLLRNRGPGGSAEASRSLSVSARARSSSEDKITVHFINRDGETLTTKGKVGDSLLWVVVENNLDIDGFGACEGTLACSTCHLIFEDHIYEKLDAITDEENDMLDLAYGLTDRSRLGCQICLTKSMDNMTVRVPETVADARQSIDVGKTS [D91W]
scaled log2 fold change [1]: 0.0916
scaled log2 fold change [2]: -0.265

MAAAGGARLLRAASAVLGGPAGRWLHHAGSRAGSSGLLRNRGPGGSAEASRSLSVSARARSSSEDKITVHFINRDGETLTTKGKVGDSLLKVVVENNLDIDGFGACEGTLACSTCHLIFEDHIYEKLDAITDEENDMLDLAYGLTDRSRLGCQICLTKSMDNMTVRVPETVADARQSIDVGKTS [D91K]
scaled log2 fold change [1]: -0.39
scaled log2 fold change [2]: -0.0722

MAAAGGARLLRAASAVLGGPAGRWLHHAGSRAGSSGLLRNRGPGGSAEASRSLSVSARARSSSEDKITVHFINRDGETLTTKGKVGDSLLVVVVENNLDIDGFGACEGTLACSTCHLIFEDHIYEKLDAITDEENDMLDLAYGLTDRSRLGCQICLTKSMDNMTVRVPETVADARQSIDVGKTS [D91V]
scaled log2 fold change [1]: -0.017
scaled log2 fold change [2]: 0.747

MAAAGGARLLRAASAVLGGPAGRWLHHAGSRAGSSGLLRNRGPGGSAEASRSLSVSARARSSSEDKITVHFINRDGETLTTKGKVGDSLLLVVVENNLDIDGFGACEGTLACSTCHLIFEDHIYEKLDAITDEENDMLDLAYGLTDRSRLGCQICLTKSMDNMTVRVPETVADARQSIDVGKTS [D91L]
scaled log2 fold change [1]: 0.217
scaled log2 fold change [2]: -0.127

MAAAGGARLLRAASAVLGGPAGRWLHHAGSRAGSSGLLRNRGPGGSAEASRSLSVSARARSSSEDKITVHFINRDGETLTTKGKVGDSLLRVVVENNLDIDGFGACEGTLACSTCHLIFEDHIYEKLDAITDEENDMLDLAYGLTDRSRLGCQICLTKSMDNMTVRVPETVADARQSIDVGKTS [D91R]
scaled log2 fold change [1]: -0.658
scaled log2 fold change [2]: -0.752

MAAAGGARLLRAASAVLGGPAGRWLHHAGSRAGSSGLLRNRGPGGSAEASRSLSVSARARSSSEDKITVHFINRDGETLTTKGKVGDSLLQVVVENNLDIDGFGACEGTLACSTCHLIFEDHIYEKLDAITDEENDMLDLAYGLTDRSRLGCQICLTKSMDNMTVRVPETVADARQSIDVGKTS [D91Q]
scaled log2 fold change [1]: -1.31
scaled log2 fold change [2]: -0.476

MAAAGGARLLRAASAVLGGPAGRWLHHAGSRAGSSGLLRNRGPGGSAEASRSLSVSARARSSSEDKITVHFINRDGETLTTKGKVGDSLLMVVVENNLDIDGFGACEGTLACSTCHLIFEDHIYEKLDAITDEENDMLDLAYGLTDRSRLGCQICLTKSMDNMTVRVPETVADARQSIDVGKTS [D91M]
scaled log2 fold change [1]: -0.119
scaled log2 fold change [2]: -1.37

MAAAGGARLLRAASAVLGGPAGRWLHHAGSRAGSSGLLRNRGPGGSAEASRSLSVSARARSSSEDKITVHFINRDGETLTTKGKVGDSLLPVVVENNLDIDGFGACEGTLACSTCHLIFEDHIYEKLDAITDEENDMLDLAYGLTDRSRLGCQICLTKSMDNMTVRVPETVADARQSIDVGKTS [D91P]
scaled log2 fold change [1]: 0.307
scaled log2 fold change [2]: 0.179

MAAAGGARLLRAASAVLGGPAGRWLHHAGSRAGSSGLLRNRGPGGSAEASRSLSVSARARSSSEDKITVHFINRDGETLTTKGKVGDSLLNVVVENNLDIDGFGACEGTLACSTCHLIFEDHIYEKLDAITDEENDMLDLAYGLTDRSRLGCQICLTKSMDNMTVRVPETVADARQSIDVGKTS [D91N]
scaled log2 fold change [1]: 0.109
scaled log2 fold change [2]: -0.0567

MAAAGGARLLRAASAVLGGPAGRWLHHAGSRAGSSGLLRNRGPGGSAEASRSLSVSARARSSSEDKITVHFINRDGETLTTKGKVGDSLLSVVVENNLDIDGFGACEGTLACSTCHLIFEDHIYEKLDAITDEENDMLDLAYGLTDRSRLGCQICLTKSMDNMTVRVPETVADARQSIDVGKTS [D91S]
scaled log2 fold change [1]: -0.972
scaled log2 fold change [2]: 0.774

MAAAGGARLLRAASAVLGGPAGRWLHHAGSRAGSSGLLRNRGPGGSAEASRSLSVSARARSSSEDKITVHFINRDGETLTTKGKVGDSLLYVVVENNLDIDGFGACEGTLACSTCHLIFEDHIYEKLDAITDEENDMLDLAYGLTDRSRLGCQICLTKSMDNMTVRVPETVADARQSIDVGKTS [D91Y]
scaled log2 fold change [1]: -0.0508
scaled log2 fold change [2]: 0.728

MAAAGGARLLRAASAVLGGPAGRWLHHAGSRAGSSGLLRNRGPGGSAEASRSLSVSARARSSSEDKITVHFINRDGETLTTKGKVGDSLLTVVVENNLDIDGFGACEGTLACSTCHLIFEDHIYEKLDAITDEENDMLDLAYGLTDRSRLGCQICLTKSMDNMTVRVPETVADARQSIDVGKTS [D91T]
scaled log2 fold change [1]: 0.169
